Source: patent US20120114665A1 (Regeneron, published 2012)
Numbering of substitutions follows the chain as printed. “And” between values parts separate entries of the source, which are not always exact repeats. Identical values can stand only once. Like-named read-outs stand apart in the source and are kept apart here. One block for each binder: values may come before it.

Assays:
[1] = target: T1, human RANKL (receptor activator of NF-κB ligand) (human, UniProt O14788 140-317, limits assumed); test: cell-based or functional assay
T1 sequence: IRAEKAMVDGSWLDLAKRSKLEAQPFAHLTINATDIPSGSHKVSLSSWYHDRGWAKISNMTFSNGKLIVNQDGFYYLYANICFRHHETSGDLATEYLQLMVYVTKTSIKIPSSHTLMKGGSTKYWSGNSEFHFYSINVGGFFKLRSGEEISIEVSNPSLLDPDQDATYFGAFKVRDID

[2] = target: T2, penta-his-tagged monkey (Macaca fascicularis) RANKL (Macaca fascicularis, UniProt O14788 125-317 (human entry)); test: competition ELISA: 150 pM his-mfRANKL pre-mixed with antibody, free RANKL detected on hRANK-hFc plate
T2 construct: also called his-mfRANKL; mfRANKL; not shown: penta-his tag
T2 chain: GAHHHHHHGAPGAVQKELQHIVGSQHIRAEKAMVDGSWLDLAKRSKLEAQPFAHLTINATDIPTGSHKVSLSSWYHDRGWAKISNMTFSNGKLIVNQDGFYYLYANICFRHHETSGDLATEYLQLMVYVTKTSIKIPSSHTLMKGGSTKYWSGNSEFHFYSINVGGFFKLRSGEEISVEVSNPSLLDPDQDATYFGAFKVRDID
Procedure: (§1) Briefly, hRANK-hFc protein was coated on a 96-well plate in PBS buffer overnight at 4° C. at 2 μg/ml, and nonspecific binding was blocked with BSA, to form a hRANK-hFc surface.

human trRANKL-his (R&D) [3] = target: T3, human trRANKL-his (R&D) (human, UniProt O14788 136-317, limits assumed); test: SPR, trRANKL-his captured on anti-his, antibody 12.5-50 nM injected, 25°C
T3 construct: Bought (R&D); also called captured RANKL; not shown: his tag
T3 sequence: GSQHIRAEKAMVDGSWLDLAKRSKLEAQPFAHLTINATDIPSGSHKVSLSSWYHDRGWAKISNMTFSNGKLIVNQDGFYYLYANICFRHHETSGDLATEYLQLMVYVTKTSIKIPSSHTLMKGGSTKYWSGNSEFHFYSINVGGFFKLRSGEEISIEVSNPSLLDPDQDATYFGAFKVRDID
Text: (§2) Briefly, human trRANKL-his (R&D) was first captured over an anti-his surface. […] The antigen and antibody binding and dissociation were monitored for 1 hr. KD is expressed in pM, T_{1/2} in hrs.

penta-his-tagged hRANKL [4] = target: T4, penta-his-tagged hRANKL (human); test: competition ELISA: 150 pM his-hRANKL pre-mixed with antibody, free RANKL detected on hRANK-hFc plate
T4 construct: also called his-hRANKL; not shown: penta-his tag
T4 chain: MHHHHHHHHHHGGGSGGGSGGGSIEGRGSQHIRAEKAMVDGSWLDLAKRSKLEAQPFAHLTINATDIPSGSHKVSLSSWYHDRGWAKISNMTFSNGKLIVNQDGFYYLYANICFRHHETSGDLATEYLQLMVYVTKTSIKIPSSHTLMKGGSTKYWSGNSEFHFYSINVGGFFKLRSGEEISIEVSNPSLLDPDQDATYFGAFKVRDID
Procedure: as §1

human trRANKL-his (R&D) [5] = target: T3, human trRANKL-his (R&D); test: SPR, trRANKL-his captured on anti-his, antibody 12.5-50 nM injected, 37°C
Text: as §2

penta-his-tagged hRANKL [6] = target: T4, penta-his-tagged hRANKL; test: competition ELISA: 150 pM his-hRANKL pre-mixed with antibody, free RANKL detected on hRANK-hFc plate
Procedure: as §1

[7] = target: T1, human RANKL (receptor activator of …); test: SPR (BIACORE), purified antibody, 25°C
[8] = target: T2, penta-his-tagged monkey (Macaca …); test: competition ELISA: 150 pM his-mfRANKL pre-mixed with antibody, free RANKL detected on hRANK-hFc plate
Procedure: as §1

[9] = target: T1, human RANKL (receptor activator of …); test: cell-based or functional assay; remark: listed apart in the source
[10] = target: T1, human RANKL (receptor activator of …); test: SPR (BIACORE), purified antibody, 37°C
[11] = target: T1, human RANKL (receptor activator of …); test: SPR (BIACORE 2000), antibody captured on anti-hFc, hRANKL injected
Procedure: Equilibrium dissociation constants (KD values) for antigen binding to the selected antibodies generated by hybridoma cell lines described above were determined by surface kinetics in a real-time biosensor surface plasmon resonance assay (BIACORE™ 2000). Each selected antibody was captured on a goat anti-mouse IgG polyclonal antibody surface created through direct chemical coupling to a BIACORE™ chip to form a captured antibody surface.
Each selected antibody was captured on a goat anti-hFc polyclonal antibody (Jackson Immuno Research Lab) surface created through direct chemical coupling to a BIACORE™ chip to form a captured antibody surface (Table 2).

[12] = target: T5, hRANKL captured on an anti-penta-his antibody surface (human, UniProt O14788 136-317); test: SPR (BIACORE), hRANKL captured on anti-penta-his, antibody 25-100 nM injected, 37°C
T5 construct: also called captured hRANKL surface; not shown: his tag implied by capture on anti-penta-his
T5 sequence: T3 sequence

[13] = target: T5, hRANKL captured on an anti-penta-his …; test: SPR (BIACORE), hRANKL captured on anti-penta-his, antibody 25-100 nM injected, 25°C

B1: H4H008P2 (antibody, V domains shown)
VH: EVQLLESGGGLLQPGGSLRLSCAASGFTFSGFGMSWVRQAPGRGLEWVSVISYDGRNKYYADSVKGRFTSSRDNSKNTLYLQMNSLRAEDTAVYYCAKSLSGTYWGYGMDVWGRGTLVTVSS
VL: EIVLTQSPATLSLSPGERATLSCRASQSIRSWLAWYQQKPGQAPRLLIYKASNRATGIPARFSGSGSGTDFTLTISSLEPEDFGVYYCQQYNSYLWTFGGGTKVEIKR
IC50, hRANKL-inducible luciferase activity in HK293/RANK/NFκB-luc-eGFP cells [1]: 15 pM
IC50 [2]: 1.8 nM
Kd (human trRANKL-his (R&D) [3]): 0.0254 nM
T1/2 (human trRANKL-his (R&D) [3]): 2 h
IC50 (penta-his-tagged hRANKL [4]): 0.0569 nM
Kd (human trRANKL-his (R&D) [5]): 0.245 nM
T1/2 (human trRANKL-his (R&D) [5]): 12 min

B2: H4H002P (antibody, V domains shown)
VH: QVQLVESGGGVVQPGRSLRLSCAASGFTFTGYGMHWVRQAPDKGLEWVAVISYDGTNKYYVDSVKGRFTISRDNSQNTLYLQMNSLRAEDTAVYYCAKCLSGTYWGYGMDVWGQGTTVTVS
VL: DIQMTQSPSTLSASVGDRVTITCRASRSINSWLAWYQQKPGKAPKLLIYKASSLESGVPSRFSGSGSGTEFTLTISSLQPDDFASYYCQQYNNYSWTFGQGTKVEIK
notes: Purified antibody from clone 1F8
IC50 (penta-his-tagged hRANKL [6]): 0.165 nM
Kd [7]: 0.262 nM
IC50 [8]: 1.36 nM
IC50, hRANKL-inducible luciferase activity in HK293/RANK/NFκB-luc-eGFP cells [9]: 214 pM
Kd [10]: 0.0531 nM

B4: 2H10 (antibody, V domains shown)
VH: QVQLVESGGGVVQPGRSLRLSCAASGFTFSGYGIHWVRQAPDKGLEWVAVISYDGTNKYYGDSVKGRFTISRDNTKNTLYLQMNSLRTEDTAVYYCAKSLSGTYWGYGMDVWGQGTTVTVSS
VL: B2 VL with D1A, R27Q, S28N, N30G, S31N, E55Q, S56N, S85T, Q90R, N93S
notes: From direct isolation of splenocytes; captured on anti-hFc; also called H4H009N
Kd [11]: 0.0158 nM

B5: H4H005P (antibody, V domains shown)
VH: B2 VH with Q13H, R19T, T30S, D42G, T56I, V61A, Q76K, V93I, T103S, Y107F
VL: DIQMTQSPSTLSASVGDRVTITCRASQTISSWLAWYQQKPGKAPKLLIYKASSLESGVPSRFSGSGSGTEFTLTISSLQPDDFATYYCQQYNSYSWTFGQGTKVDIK
notes: Purified antibody from clone 2E10
IC50 (penta-his-tagged hRANKL [6]): 1.16 nM
Kd [7]: 0.601 nM
IC50 [8]: 4.32 nM
IC50, hRANKL-inducible luciferase activity in HK293/RANK/NFκB-luc-eGFP cells [9]: 1170 pM
Kd [10]: 0.0453 nM

B7: H4H006P (antibody, V domains shown)
VH: B2 VH with T30G, T56N, Q76K, T78M, V111G
VL: B2 VL with R27Q, N30S, S31N, S53N, E55Q, S85T
notes: Purified antibody from clone 2E11
IC50 (penta-his-tagged hRANKL [6]): 0.085 nM
Kd [7]: 0.172 nM
IC50 [8]: 0.42 nM
IC50, hRANKL-inducible luciferase activity in HK293/RANK/NFκB-luc-eGFP cells [9]: 80 pM
Kd [10]: 0.044 nM

B10: H4H010P (antibody, V domains shown)
VH: QVQLVESGGGVVQPGRSLRLSCAASGFTFSGYGMHWVRQAPGKGLDWVTVISYDGSNKHYADSVKGRFTISRDNSKNTLYLQMSSLGPEDTAVYYCAKSLSGTYWGYGMDVWGQGTTVTVS
VL: B2 VL with R27Q, S28N, N30S, I75V, S85T, N93R
notes: Purified antibody from clone 2H12
IC50 (penta-his-tagged hRANKL [6]): 0.045 nM
Kd [7]: 0.0697 nM
IC50 [8]: 0.15 nM
IC50, hRANKL-inducible luciferase activity in HK293/RANK/NFκB-luc-eGFP cells [9]: 51 pM
Kd [10]: 0.0779 nM

B11: H4H007P (antibody, V domains shown)
VH: B2 VH with T30S, D42G, K43M, T56I, V61A, Q76K, Y80F, V93L
VL: B2 VL with R27Q, N30S, Q38L, S63G, S85T, Q90H, N93S
notes: Purified antibody from clone 2E12
IC50 (penta-his-tagged hRANKL [6]): 0.335 nM
Kd [7]: 0.335 nM
IC50 [8]: 2.76 nM
IC50, hRANKL-inducible luciferase activity in HK293/RANK/NFκB-luc-eGFP cells [9]: 452 pM
Kd [10]: 0.0578 nM

B15: 2E11 (antibody, V domains shown)
VH: B4 VH with E6Q, S30G, I34M, T56N, G61V, T75S, T78M, T88A, S99C, V111G
VL: B2 VL with R27Q, N30S, S31N, S53N, E55Q, S85T
notes: From direct isolation of splenocytes; captured on anti-hFc; also called H4H006N
Kd [11]: 0.016 nM

B16: H4H009G (antibody, V domains shown)
VH: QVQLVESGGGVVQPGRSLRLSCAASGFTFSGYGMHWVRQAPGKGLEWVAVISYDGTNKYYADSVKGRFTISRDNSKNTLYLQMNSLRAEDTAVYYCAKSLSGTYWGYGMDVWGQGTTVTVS
VL: B2 VL with R27Q, S28N, N30G, S31N, S85T, Q90R, N93S
notes: Purified antibody from clone 2H10
IC50 (penta-his-tagged hRANKL [6]): 0.065 nM
Kd [7]: 0.198 nM
IC50 [8]: 0.875 nM
IC50, hRANKL-inducible luciferase activity in HK293/RANK/NFκB-luc-eGFP cells [9]: 102 pM
Kd [10]: 0.0424 nM

Now from value to binder:

Kd [11]: 0.0331 nM
B3: 2H12 (antibody, V domains shown)
VH: QVQLVQSGGGVVQPGRSLRLSCAASGFTFSGYGMHWVRQAPGKGLDWVTVISYDGSNKHYADSVKGRFTISRDNSKNTLYLQMSSLGPEDTAVYYCAKSLSGTYWGYGMDVWGQGTTVTVSS
VL: B2 VL with D1A, R27Q, S28N, N30S, I75V, S85T, N93R
notes: From direct isolation of splenocytes; captured on anti-hFc; also called H4H010N

Kd [11]: 0.0957 nM
B6: 2E12 (antibody, V domains shown)
VH: QVQLVQSGGGVVQPGRSLRLSCAASGFTFSGYGMHWVRQAPGMGLEWVAVISYDGINKYYADSVKGRFTISRDNSKNTLFLQMNSLRAEDTALYYCAKCLSGTYWGYGMDVWGQGTTVTVSS
VL: B2 VL with D1A, R27Q, N30S, Q38L, S63G, S85T, Q90H, N93S
notes: From direct isolation of splenocytes; captured on anti-hFc; also called H4H007N

Kd [11]: 0.0172 nM
B8: 2E10 (antibody, V domains shown)
VH: B6 VH with Q13H, R19T, M43K, F80Y, L93I, T103S, Y107F
VL: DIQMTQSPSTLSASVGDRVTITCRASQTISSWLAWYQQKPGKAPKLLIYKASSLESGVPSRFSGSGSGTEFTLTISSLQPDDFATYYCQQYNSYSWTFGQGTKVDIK
notes: From direct isolation of splenocytes; captured on anti-hFc; also called H4H005N

IC50 (penta-his-tagged hRANKL [6]): 0.06 nM
Kd [12]: 0.881 nM
T1/2 [12]: 7.8 min
Kd [7]: 0.173 nM
Kd [13]: 0.376 nM
T1/2 [13]: 1 h
IC50 [8]: 0.345 nM
IC50, hRANKL-inducible luciferase activity in HK293/RANK/NFκB-luc-eGFP cells [9]: 45 pM and 84 pM
Kd [10]: 0.0248 nM
B9: H4H009P (antibody, V domains shown)
VH: B2 VH with T30S, M34I, V61G, S75T, Q76K, A88T, C99S
VL: B2 VL with R27Q, S28N, N30G, S31N, E55Q, S56N, S85T, Q90R, N93S
notes: as for B16

Kd [11]: 0.028 nM
B12: 2G10 (antibody, V domains shown)
VH: B6 VH with Y32F, M43K, V50I, I56R, F80Y, L93V, C99S
VL: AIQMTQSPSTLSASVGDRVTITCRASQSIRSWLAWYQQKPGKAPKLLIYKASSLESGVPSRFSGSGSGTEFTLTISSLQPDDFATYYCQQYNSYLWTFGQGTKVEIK
notes: From direct isolation of splenocytes; captured on anti-hFc; also called H4H008N

Kd [11]: 0.00785 nM
B13: 1F8 (antibody, V domains shown)
VH: B4 VH with E6Q, S30T, I34M, G61V, T75S, K76Q, T88A, S99C
VL: B2 VL with D1A
notes: From direct isolation of splenocytes; captured on anti-hFc; also called H4H002N

IC50 (penta-his-tagged hRANKL [6]): 0.195 nM
Kd [7]: 0.265 nM
IC50 [8]: 1.24 nM
IC50, hRANKL-inducible luciferase activity in HK293/RANK/NFκB-luc-eGFP cells [9]: 171 pM
Kd [10]: 0.0415 nM
B14: H4H006G (antibody, V domains shown)
VH: B2 VH with T30G, D42G, T56N, V61A, Q76K, V111G
VL: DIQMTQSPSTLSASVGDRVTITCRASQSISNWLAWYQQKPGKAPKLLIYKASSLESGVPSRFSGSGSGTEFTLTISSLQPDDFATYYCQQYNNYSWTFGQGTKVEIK
notes: as for B7

IC50 (penta-his-tagged hRANKL [6]): 3.13 nM
Kd [7]: 0.0762 nM
IC50 [8]: 9.59 nM
IC50, hRANKL-inducible luciferase activity in HK293/RANK/NFκB-luc-eGFP cells [9]: 1060 pM
Kd [10]: 0.0241 nM
B17: H4H005G (antibody, V domains shown)
VH: B2 VH with T30S, D42G, T56I, V61A, Q76K, T103S, Y107F
VL: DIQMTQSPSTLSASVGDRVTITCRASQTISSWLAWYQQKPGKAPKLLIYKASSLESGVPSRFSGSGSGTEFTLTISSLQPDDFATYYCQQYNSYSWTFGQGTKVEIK
notes: as for B5
